Reference: patent US6428781B1, “Composition of an endogenous insulin-like growth factor-II derivative” (Daiichi Pharmaceutical Co., Ltd., priority 1996, dated 2002)

How the values were obtained:
[1] = adult humans, intravenous injection, 100 μg/kg; Guler et al. 1987; cited from earlier work
[2] = Evaluation of blood lipid level (1), nonfasting SD rats; assay type: in vivo; details: plasma; for total glyceride concentration 6 hours after administration, compared to negative control: IGF-I 50 μg/kg s.c., anti-RBP-3 pAb #35 20 mg/head i.p.; for total glyceride concentration 6 hours after administration, compared to negative control / total cholesterol concentration 24 hours after administration, compared to negative control: [Leu27, Leu43]rIGF-II 1,000 μg/kg s.c.
Description: [Leu27, Leu43]rIGF-II (1,000 μg/kg) was administered, subcutaneously, to a group of nonfasting SD rats (n=3, 8 weeks old, male, average weight: 300 g, purchased from Charles River Japan).
Anti-RBP-3 pAb #35 (20 mg/head) was administered, intraperitoneally, to another group of SD rats.
As a negative control, physiological saline (500 μl/head) was administered, subcutaneously, and as a positive control group, IGF-I (50 μg/kg, 200 μg/kg) was administered, subcutaneously.
About 500 μl of blood was sequentially collected into EDTA-coated glass tubes from the caudal vein. Thirty minutes after collection, the blood was centrifuged (3,500 rpm×12 mm 25° C.), and plasma supernatant was recovered and stored at −80° C. until assayed. The total cholesterol and total triglyceride concentrations of the plasma were measured in accordance with a “Hitachi 715 model” automatic analyzer using the enzyme method of “Autocera CH02 and TG2” (each, manufactured by Daiichi Pure Chemicals Co., Ltd.).

[3] = biological target: T1, rat IGFBP-3 (RBP-3 E. coli) (Rattus norvegicus, UniProt P15473); experiment: Solid-phase binding of HRP-IGF-II to immobilized IGFBP-3, competitive inhibition; details: for inhibitory activity against the binding of IGF-II to IGFBP-3 (RBP-3 E. coli): final concentration of each compound 100 μg/ml, compared to the other test compounds of Table 1
T1 construct: made in house; host or cells: Escherichia coli (periplasm)
Description: A 96-well microtiter plate manufactured by Costar Corp.; 50 mM sodium phosphate buffer (pH 6.5) as a basic buffer for immuobilization; basic buffer supplemented with 0.03% Tween 20, basic buffer supplementee with 1% BSA and basic buffer supplemented with 0.25% BSA an 0.03% Tween 20 were used in the washing, blocking and binding steps, respectively. After each reaction, wells were washed twice with 400 μl/well of buffer. Horseradish peroxidase-labeled IGF-II (hereinafter “HRP-IGF-II”) was prepared using a commercially available kit (PIERCE Chemichal Company).
To the microtiter plate, RBP-3 E. coli (150 ng/ml) was added in an amount of 50 μl/well and allowed to stand overnight at 4° C. for immobilization. After blocking, 50 μl/well of HRP-IGF-II (final concentration diluted 12,000-fold) was added at 25° C. for 2 hours in the presence or absence of a test compound. Test compounds at various concentrations were added to each well in a total volume of 50 μl.
In the final step, a solution of 2,2′-azino-bis(3-ethylbenzthiazoline-6-sulfonic acid) (hereinafter “ABTS”; Kirkegaard & Perry Laboratories) was added to each well (100 μl/well) and allowed to stand at room temperature. The absorbance (O.D.) at 405 nm was measured on a plate reader (“VMAX™”, Molecular Devices).
The absorbance in the absence of a test compound is designated “B0”, and in the presence of a test compound is designated as “B”. The absorbance in the absence of both a test compound and using a non-immobilized well (a well not containing RBP-3 E. coli) is designated as nonspecific bound (NSB). The percent binding of labeled IGF-II to immobilized IGFBP-3 in the presence of a test compound is calculated from the following equation: […]
The binding reactions for each of the test compounds, was performed triplicate. The average value is plotted and the SD value is indicated with a bar (refer to FIG. 8).
Each compound was dissolved or suspended in basic buffer containing 5% methanol at a final concentration of 1 mg/ml. The resulting solution or suspension was diluted with the reaction buffer 5-fold or to a final concentration of 200 μg/ml. The final concentration of each compound at the time of measurement was 100 μg/ml.
The percent binding of IGF-II to IGFBP-3 (RBP-3 E. coli) in the presence of a test compound was calculated using the following formula:
“percent total bound (100(%))−percent actual bound (%)”=percent inhibitory activity (%) of the test specimen.
Measurements for each of the test compounds were performed twice, and the average inhibitory activity was determined.

[4] = biological target: T2, human placental insulin receptor (Homo sapiens, UniProt P06213); experiment: Insulin receptor radioreceptor binding assay with 125I-insulin
T2 construct: human placental insulin receptor; from tissue; host or cells: human placenta
Description: (§1) The [Leu27, Leu43]rIGF-II derivative described in Example 8, was characterized for its binding affinity to human placental IGF-I receptor and human placental insulin receptor using a radioreceptor assay (Le Bon, T. R., et al., J. Biol. Chem., 261, 7685 (1986); Fujita-Yamaguchi, Y., et al., J. Biol. Chem., 258, 5045 (1983)).
(§2) In the first step, ^125I-IGF (or ^125I-insulin) (Amersham International plc) in an amount of 2×10^4 cpm was incubated with various amounts of the IGF receptor or the insulin receptor, to determine an amount of the receptor to which 50% of ^125I-IGF (or ^125I-insulin) binds.
(§3) [Leu27, Leu43]rIGF-II was added at various concentrations to aliquots of the mixture containing the determined amount of the receptor and ^125I-IGF (or ^125I-insulin) (2×10^4 cpm). The final volume of the reaction mix was brought to […] using a 50 mM Tris-HCl buffer (pH 7.4) containing 0.1% BSA and 0.075% Triton X-100, and allowed to incubate overnight at 4° C. […] The reaction mixture was centrifuged (3000 rpm×30 min, 4° C.), the supernatant decanted, and the cpm value for the pellet was measured by gamma counting. […]
(§4) The cpm value in the absence of a receptor is designated as nonspecific bound (NSB). […] The percent binding to a receptor is calculated from the following equation: […]

[5] = biological target: T3, human placental IGF-I receptor (Homo sapiens, UniProt P08069); experiment: IGF-I receptor radioreceptor binding assay with 125I-IGF-I
T3 construct: human placental IGF-I receptor; from tissue; host or cells: human placenta
Description: as §1, §2, §3, §4

IGF-I receptor = IGF-I receptor (Homo sapiens, UniProt P08069); details: Sakano et al. 1991; cited from earlier work
insulin receptor = insulin receptor (Homo sapiens, UniProt P06213); details: Sakano et al. 1991; cited from earlier work
IGFBP-3 = IGFBP-3 (Homo sapiens, UniProt P17936); details: Bach et al. 1993; cited from earlier work
[6] = biological target: IGF-II/cation-independent mannose-6-phosphate receptor (Homo sapiens, UniProt P11717); details: Sakano et al. 1991; cited from earlier work
cell proliferation = details: Sakano et al. 1991; cited from earlier work

T1 sequence (P15473 28-292): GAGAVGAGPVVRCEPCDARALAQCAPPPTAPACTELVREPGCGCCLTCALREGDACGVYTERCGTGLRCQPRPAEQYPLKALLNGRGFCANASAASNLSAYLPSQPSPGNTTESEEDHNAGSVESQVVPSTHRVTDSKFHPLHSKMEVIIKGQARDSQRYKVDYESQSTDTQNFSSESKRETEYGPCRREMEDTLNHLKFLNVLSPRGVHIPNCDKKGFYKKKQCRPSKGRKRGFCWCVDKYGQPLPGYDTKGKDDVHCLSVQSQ
Sequence of IGF-II/cation-independent mannose-6-phosphate receptor (P11717 41-2491): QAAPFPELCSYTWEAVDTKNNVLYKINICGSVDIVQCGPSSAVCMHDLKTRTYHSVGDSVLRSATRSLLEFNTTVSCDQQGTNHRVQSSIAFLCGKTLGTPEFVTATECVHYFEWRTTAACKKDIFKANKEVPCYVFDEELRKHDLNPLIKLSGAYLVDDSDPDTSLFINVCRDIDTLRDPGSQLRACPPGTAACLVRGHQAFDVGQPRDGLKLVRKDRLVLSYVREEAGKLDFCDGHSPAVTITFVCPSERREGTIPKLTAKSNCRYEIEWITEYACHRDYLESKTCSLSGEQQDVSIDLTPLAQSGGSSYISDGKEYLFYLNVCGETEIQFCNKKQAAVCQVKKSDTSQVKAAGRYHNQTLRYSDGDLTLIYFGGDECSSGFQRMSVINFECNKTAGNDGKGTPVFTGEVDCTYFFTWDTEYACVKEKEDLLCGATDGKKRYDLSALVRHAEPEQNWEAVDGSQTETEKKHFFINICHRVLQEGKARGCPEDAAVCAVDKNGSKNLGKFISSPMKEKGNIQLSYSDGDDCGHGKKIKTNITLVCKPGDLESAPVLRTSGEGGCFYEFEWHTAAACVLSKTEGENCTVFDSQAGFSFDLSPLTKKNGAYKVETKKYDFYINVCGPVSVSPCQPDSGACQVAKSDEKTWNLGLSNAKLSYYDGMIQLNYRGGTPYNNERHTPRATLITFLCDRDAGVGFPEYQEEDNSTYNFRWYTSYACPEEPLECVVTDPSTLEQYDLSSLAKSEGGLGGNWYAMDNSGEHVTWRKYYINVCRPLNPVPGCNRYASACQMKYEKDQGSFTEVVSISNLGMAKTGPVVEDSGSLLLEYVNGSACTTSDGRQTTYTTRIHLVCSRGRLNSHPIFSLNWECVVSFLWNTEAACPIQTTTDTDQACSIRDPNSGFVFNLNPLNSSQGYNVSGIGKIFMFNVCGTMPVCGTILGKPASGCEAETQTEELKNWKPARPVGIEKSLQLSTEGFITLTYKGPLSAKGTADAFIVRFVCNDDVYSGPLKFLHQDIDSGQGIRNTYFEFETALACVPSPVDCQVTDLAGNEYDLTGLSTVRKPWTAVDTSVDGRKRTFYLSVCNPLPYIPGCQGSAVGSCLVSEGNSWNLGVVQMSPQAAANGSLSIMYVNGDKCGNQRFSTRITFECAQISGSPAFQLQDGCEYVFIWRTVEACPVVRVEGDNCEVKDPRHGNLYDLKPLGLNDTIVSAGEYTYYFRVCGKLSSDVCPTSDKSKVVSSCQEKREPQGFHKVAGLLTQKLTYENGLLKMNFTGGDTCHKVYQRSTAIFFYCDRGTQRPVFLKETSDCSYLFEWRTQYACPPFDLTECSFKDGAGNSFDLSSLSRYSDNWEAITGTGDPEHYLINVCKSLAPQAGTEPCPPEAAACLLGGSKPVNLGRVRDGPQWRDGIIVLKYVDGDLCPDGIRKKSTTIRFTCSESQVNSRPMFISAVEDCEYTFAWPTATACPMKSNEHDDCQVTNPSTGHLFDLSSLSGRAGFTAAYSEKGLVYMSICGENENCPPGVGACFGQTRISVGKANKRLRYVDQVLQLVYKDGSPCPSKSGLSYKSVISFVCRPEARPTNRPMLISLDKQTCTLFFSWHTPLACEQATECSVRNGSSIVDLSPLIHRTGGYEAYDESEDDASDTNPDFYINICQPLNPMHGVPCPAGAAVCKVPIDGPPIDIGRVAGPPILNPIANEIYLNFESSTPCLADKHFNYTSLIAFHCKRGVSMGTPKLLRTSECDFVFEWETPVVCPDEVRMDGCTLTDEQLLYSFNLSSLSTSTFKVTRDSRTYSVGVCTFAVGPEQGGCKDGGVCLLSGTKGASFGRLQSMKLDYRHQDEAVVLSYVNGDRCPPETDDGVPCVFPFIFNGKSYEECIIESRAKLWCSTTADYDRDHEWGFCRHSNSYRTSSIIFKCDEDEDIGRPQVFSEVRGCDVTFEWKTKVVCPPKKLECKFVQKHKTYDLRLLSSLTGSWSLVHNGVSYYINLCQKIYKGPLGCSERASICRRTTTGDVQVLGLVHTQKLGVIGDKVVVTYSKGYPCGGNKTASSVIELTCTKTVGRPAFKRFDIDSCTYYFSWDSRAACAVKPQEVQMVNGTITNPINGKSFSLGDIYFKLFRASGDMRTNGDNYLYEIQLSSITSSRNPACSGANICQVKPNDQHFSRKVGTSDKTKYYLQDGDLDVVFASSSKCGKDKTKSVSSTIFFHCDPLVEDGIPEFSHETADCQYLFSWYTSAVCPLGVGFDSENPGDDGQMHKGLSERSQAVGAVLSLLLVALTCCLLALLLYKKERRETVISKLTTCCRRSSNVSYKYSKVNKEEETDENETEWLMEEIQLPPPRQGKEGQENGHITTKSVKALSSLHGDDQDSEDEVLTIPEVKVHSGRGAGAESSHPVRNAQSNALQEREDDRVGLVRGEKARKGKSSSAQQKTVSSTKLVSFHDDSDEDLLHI
Sequence of IGFBP-3 (P17936 28-291, species assumed): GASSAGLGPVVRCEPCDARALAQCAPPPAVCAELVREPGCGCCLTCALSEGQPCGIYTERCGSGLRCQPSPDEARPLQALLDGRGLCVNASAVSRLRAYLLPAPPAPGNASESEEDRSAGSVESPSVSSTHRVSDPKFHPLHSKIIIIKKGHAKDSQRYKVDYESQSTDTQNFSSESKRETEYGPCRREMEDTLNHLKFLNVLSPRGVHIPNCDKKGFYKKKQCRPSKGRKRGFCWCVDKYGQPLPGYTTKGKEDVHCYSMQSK

IGF-I: Human IGF-I purchased from GroPep Pty. Ltd.; positive control
blood glucose levels [1]: lowering of blood glucose levels
time of lowest blood glucose level after injection [1]: 20 min
total glyceride concentration 6 hours after administration, compared to negative control [2]: significantly decreased
total cholesterol concentration 6 hours after administration, compared to negative control ([2]; IGF-I 200 μg/kg s.c.): significantly decreased
total cholesterol concentration 24 hours after administration, compared to negative control ([2]; IGF-I 200 μg/kg s.c.): significantly decreased

O=c1oc2c(O)c(O)cc3c(=O)oc4c(O)c(O)cc1c4c23 [Compound 27, Ellagic acid]
inhibitory activity against the binding of IGF-II to IGFBP-3 (RBP-3 E. coli) [3]: potent inhibitory activity

CC[C@@]1(O)C[C@H](O[C@H]2C[C@H](N(C)C)[C@H](O[C@H]3C[C@H](O)[C@H](O[C@H]4CCC(=O)[C@H](C)O4)[C@H](C)O3)[C@H](C)O2)c2c(cc3c(c2O)C(=O)c2c(O)cccc2C3=O)[C@H]1C(=O)OC [Compound 29, Aclacinomycin A]
inhibitory activity against the binding of IGF-II to IGFBP-3 (RBP-3 E. coli) [3]: potent inhibitory activity

[Leu27, Leu43]rIGF-II: human IGF-II derivative; tyrosine at residue 27 and valine at residue 43 each replaced with leucine
affinity for IGFBP-3 [3]: has affinity for IGFBP-3
inhibition of the binding of IGF (labeled IGF-II) and immobilized IGFBP-3 ([3]; procedure of Example 10): at concentrations similar to those seen for IGF-II
total glyceride concentration 6 hours after administration, compared to negative control [2]: tendency toward lowering
total cholesterol concentration 24 hours after administration, compared to negative control ([2]; IGF-I 200 μg/kg s.c.): significant decrease
affinity for / binding to the insulin receptor [4]: little or no binding
affinity for the insulin receptor, as % of that for insulin [4]: 1 to 2%
affinity for / binding to the IGF-I receptor [5]: little or no binding
affinity for the IGF-I receptor, as % of that for IGF-I [5]: 1 to 2%

[Leu 27] rIGF-II: human IGF-II derivative with a single amino acid substitution (Leu at position 27), from the literature
binding to the IGF-I receptor (IGF-I receptor): almost no binding
binding to the insulin receptor (insulin receptor): almost no binding
binding to IGFBP-3 compared to wild type (IGFBP-3): almost similar to the wild type
binding to the IGF-II/cation-independent mannose-6-phosphate receptor [6]: bind
effect on cell proliferation (cell proliferation): significantly lowered effect

[Leu 43] rIGF-II: human IGF-II derivative with a single amino acid substitution (Leu at position 43), from the literature
binding to the IGF-I receptor (IGF-I receptor): almost no binding
binding to the insulin receptor (insulin receptor): almost no binding
binding to IGFBP-3 compared to wild type (IGFBP-3): almost similar to the wild type
binding to the IGF-II/cation-independent mannose-6-phosphate receptor [6]: bind
effect on cell proliferation (cell proliferation): significantly lowered effect

Heparin [Compound 31]
inhibitory activity against the binding of IGF-II to IGFBP-3 (RBP-3 E. coli) [3]: potent inhibitory activity
